Experimental data published in US20090042809A1 (published 2009).

Tests used:
[1] = biological target: T1, angiotensin converting enzyme (ACE), obtained from Sigma Chemicals; assay: cell-based or functional assay
[2] = biological target: T1, angiotensin converting enzyme (ACE), …; assay: cell-based or functional assay; remark: listed apart in the source

| IC50 value in µM, Modified Matsui assay (cleavage of Hip-His-Leu by ACE) [1] [µM] | IC50 value in µM, at-line ACE assay (cleavage of HHL by ACE) [1] [µM] | IC50 value in the Modified Matsui test [2] [µM] | Binder |
| --- | --- | --- | --- |
| 2 | 7.1 |  | IPP [tripeptide IPP (Ile-Pro-Pro), chemically synthesised] |
| 10 | 50 |  | ITP [tripeptide ITP (Ile-Thr-Pro), chemically synthesised] |
| 0.4 | 3.8 | 0.5 | MAP [tripeptide MAP (Met-Ala-Pro), chemically synthesised] |
